# Measured values published in patent US7115262.
# Assays:
# [1] = molecular target: HIV-1 Env (LAV) (HIV-1 (LAV)) (UniProt P03377); assay: cell-based or functional assay
# [2] = molecular target: wildtype (WT) SF162 Env (HIV-1 (SF162)) (UniProt P19550); assay: cell-based or functional assay
Substance,"% control, Standard Assay (CXCR4 and CD4 on target cells), 17b at 0.1 µg/ml [1] [% control]","% control, Standard Assay (CXCR4 and CD4 on target cells), 17b at 0.5 µg/ml [1] [% control]","% control, Standard Assay (CXCR4 and CD4 on target cells), 17b at 1 µg/ml [1] [% control]","% control, Standard Assay (CXCR4 and CD4 on target cells), 17b at 5 µg/ml [1] [% control]","% control, sCD4 Assay (CXCR4 alone on target cells, 200 nM soluble CD4 added), 17b at 0.1 µg/ml [1] [% control]","% control, sCD4 Assay (CXCR4 alone on target cells, 200 nM soluble CD4 added), 17b at 0.5 µg/ml [1] [% control]","% control, sCD4 Assay (CXCR4 alone on target cells, 200 nM soluble CD4 added), 17b at 1 µg/ml [1] [% control]","% control, sCD4 Assay (CXCR4 alone on target cells, 200 nM soluble CD4 added), 17b at 5 µg/ml [1] [% control]","β-gal, Standard Assay (CXCR4 and CD4 on target cells), 17b at 0.1 µg/ml [1]","β-gal, Standard Assay (CXCR4 and CD4 on target cells), 17b at 0.5 µg/ml [1]","β-gal, Standard Assay (CXCR4 and CD4 on target cells), 17b at 1 µg/ml [1]","β-gal, Standard Assay (CXCR4 and CD4 on target cells), 17b at 5 µg/ml [1]","β-gal, sCD4 Assay (CXCR4 alone on target cells, 200 nM soluble CD4 added), 17b at 0.1 µg/ml [1]","β-gal, sCD4 Assay (CXCR4 alone on target cells, 200 nM soluble CD4 added), 17b at 0.5 µg/ml [1]","β-gal, sCD4 Assay (CXCR4 alone on target cells, 200 nM soluble CD4 added), 17b at 1 µg/ml [1]","β-gal, sCD4 Assay (CXCR4 alone on target cells, 200 nM soluble CD4 added), 17b at 5 µg/ml [1]","β-gal activity, vaccinia-based reporter gene cell fusion assay, +sCD4 (100 nM), CCR5 target cells without CD4; WT Env duplicate [2]","β-gal activity, vaccinia-based reporter gene cell fusion assay, +sCD4 (100 nM), CCR5 target cells without CD4; WT Env mean [2]"
MAb 17b (antibody),93.4,104,94.1,119,114,39.2,14.1,0,39.5,43.9,39.8,50.5,13.6,4.66,1.68,0,–,–
soluble CD4 (from UniProt P01730 26-208) (receptor),–,–,–,–,–,–,–,–,–,–,–,–,–,–,–,–,6.6,5.9
